Reference: the supplement of paper PMC10567573

B1: OAS1 (parent)
chain: TPAKSLDKFIEDYLLPDTCFRMQI
B2: TMEM192 (parent)
chain: ILGKVILWILHLLLECYIQYHHSK

Variants of: B1
Assay: protein stability index of a GFP-peptide fusion (GPS, HEK-293T) (PSI 1-6); higher = more stable
Details: c terminus: a fixed tail appended
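Also: lentivirally expressed fusions sorted by FACS into six bins by GFP to DsRed ratio, PSI derived from sequencing read proportions per bin multiplied by bin number.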

Protein stability index of substitutions, site by site:
C19: L 2.02; G 2.44; H 2.96; R 3.1; N 3.42
L14: V 2.83; G 2.84; D 1.77; N 3.44; P 2.46; E 1.74
Q23: T 2.48; V 2.56; N 1.42; Y 3.27; M 3.2; F 2.13; S 5.04; E 2.6
D12: N 2.91; M 2.77; E 2.14; H 2.25
T18: W 2.58; G 3.04; A 2.25; R 3.05; D 3.16; F 2.45; C 3.48; H 2.22; Y 3.93
D17: K 2.51; Q 1.88
S5: A 2.52; Y 2.89; V 3.06
I10: V 3.54; N 1.51; P 1.87; K 1.31; H 1.92; G 2.23
R21: M 2.31; T 3.86; D 1.56; H 3.05; V 3.2; G 2.33; S 3.4; Y 2.44; K 2.46; Q 3.37
F9: R 2.08; T 2.95; P 1.97; E 1.75; Y 1.96; D 2.17; H 2.91; A 2.42; K 2.13
P2: F 3.08; T 2.82; Q 2.97; W 3.86; L 2.82; N 3.68; H 3.76
I24: C 2.23; E 1.85; M 1.7; G 1.55; V 2; N 1.76; H 2.22
T1: N 3.42; L 3.21; W 2.39; H 3.45; M 1.9
P16: R 3.61; N 2.65; C 2.44; K 2.78; M 1.84
L15: F 3.79; S 2.26; R 3.08
Y13: L 3.57; V 2.87; W 3.04; C 3.56; Q 1.5; T 1.9; E 1.79; I 2.54; R 1.27; A 1.98; S 2.22
K4: F 2.9; H 2.59; M 1.67
M22: Y 2.9; R 1.94; C 2.94
L6: I 3.63; K 1.61; Q 2.47; W 2.19; R 2.55
D7: W 3.11; M 2.87; C 2.77; I 2.96; Q 2.94; A 2.77
A3: G 3.77; E 2.88; R 2.23; M 2.11; Q 2.56; Y 1.96; W 2.58; P 2.49; V 3.63; I 3.83
K8: M 2.04; R 3.07; E 3.06; P 3.17; H 1.77
F20: Q 1.58; H 1.47; C 2.15; K 2.4; T 2.21; L 2.2
E11: S 1.97; Q 2.19; I 2.61; C 2.38; P 3.89; Y 1.66; V 3.93; W 2.84; H 1.26; R 4.73; F 2.29; K 2.83; D 2.34

Variants of: B2
Assay: as above
Details: c terminus: a fixed tail appended

Protein stability index, by site and new letter:
L14: H 3.19; R 2.71; T 3.98; Q 2.28; M 2.95; V 4.41; W 1.68; K 2.31; I 3.72; Y 3.51; P 3.38; N 3.68; G 3.05; S 2.43
K24: G 3.14; P 3; A 2.69; C 2.89; N 3.06; L 2.65; M 3.05; D 2.86; V 2.48; F 3.92; W 3.65; H 2.07; E 3.43; T 3.66; R 3.46; I 2.38
H21: L 2.36; Y 4.47; S 2.67; R 1.92; E 3; F 3.45; I 3.57; P 2.65; D 4.02; G 3.35; K 3.49; M 2.86; N 1.95; W 2.55; T 2.54; V 3.35
C16: D 2.6; E 2.48; Q 2.86; W 2.31; P 2.88; I 2.95; N 3.32; T 3.84; S 5.42; M 3.3; Y 3.21; F 2.6; K 3.66; A 3.38; G 3.5
E15: V 3.17; L 3.05; P 3.23; S 2.14; T 2.4; A 3.03; F 2.44; Y 2.69; H 3.19; N 3.35; I 3.52; Q 3.19; D 2.1; C 2.82; M 2.76; G 2.81; K 2.68
Q19: R 2.9; T 2.57; M 2.97; D 3.64; C 3.13; V 3.16; L 4.51; N 2.91; W 2.36; K 2.25; P 2.26; H 2.44; A 2.58; Y 3.49; F 2.49; E 3.03; I 2.76; G 3.15
Y17: E 3.46; T 1.81; C 2.8; R 2.2; D 2.2; S 3.71; N 3.47; Q 2.67; L 2.59; M 2.85; I 3.59; H 3.22; K 2.99; F 3.16; G 3.49; P 3.26; W 3.9; A 2.48
S23: V 4.52; K 2.82; Y 2.72; A 2.08; W 3.3; I 2.68; L 3.84; M 2.49; E 2.49; D 2.57; G 3.2; Q 2.32; F 2.9; P 1.54; R 3.3; N 4.27
Y20: R 1.94; Q 4.39; L 3.1; A 2.9; P 3.57; K 2.51; W 2.22; D 2.2; S 3.62; G 2.11; F 1.26; E 3.48; N 2.5; V 3.38; M 3.73; T 4.2; H 1.97; C 3.13
H22: V 2.95; C 1.54; F 2.56; E 2.6; L 1.94; A 2.94; T 2.36; P 2.33; M 1.96; G 2.63; I 2.33; S 3.42; D 3.4; W 3.65; Y 3.11; K 3.66
I18: S 2.74; T 2.31; P 2.44; L 3.64; N 1.48; Q 3.46; H 2.59; D 2.61; Y 2.24; F 3.01; M 2.03; V 3.96; G 2.71; W 3.7; R 2.36; E 2.99; A 4.65; C 2.4; K 3.4
